Results as given in article doi:10.1101/699223 (bioRxiv, 2019).
Substitutions are numbered along the chain they refer to. Names may count otherwise.

T1: human BBS2 R632P, c-Myc-tagged (human, UniProt Q9BXC9 1-721, R632P)
T1 sequence (looked up): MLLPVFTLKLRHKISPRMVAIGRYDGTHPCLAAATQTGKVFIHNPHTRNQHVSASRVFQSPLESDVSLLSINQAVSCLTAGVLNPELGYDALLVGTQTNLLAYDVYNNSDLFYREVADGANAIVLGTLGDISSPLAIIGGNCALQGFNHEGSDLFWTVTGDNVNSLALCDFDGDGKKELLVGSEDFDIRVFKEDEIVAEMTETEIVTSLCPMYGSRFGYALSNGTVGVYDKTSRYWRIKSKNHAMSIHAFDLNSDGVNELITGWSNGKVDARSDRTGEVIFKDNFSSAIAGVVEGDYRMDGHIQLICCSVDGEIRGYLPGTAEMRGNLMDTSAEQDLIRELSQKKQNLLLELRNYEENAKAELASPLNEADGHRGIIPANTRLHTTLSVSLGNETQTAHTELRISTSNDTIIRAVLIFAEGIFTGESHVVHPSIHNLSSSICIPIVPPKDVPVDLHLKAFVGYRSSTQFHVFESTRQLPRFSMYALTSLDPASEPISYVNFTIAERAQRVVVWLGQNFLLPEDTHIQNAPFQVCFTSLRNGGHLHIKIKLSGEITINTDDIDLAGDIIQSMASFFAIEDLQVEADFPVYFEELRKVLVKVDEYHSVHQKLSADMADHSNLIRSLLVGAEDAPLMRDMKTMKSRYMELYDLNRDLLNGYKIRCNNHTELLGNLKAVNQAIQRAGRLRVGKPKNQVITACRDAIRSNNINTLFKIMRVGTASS

T2: human BBS2 L349W, c-Myc-tagged (human, UniProt Q9BXC9 1-721, L349W)
T2 sequence (looked up): T1 sequence (looked up) with L349W, P632R

B1: human BBS9 (Bardet-Biedl syndrome protein 9), wild type, Flag-tagged (natural protein, UniProt Q3SYG4 1-887, looked up)
chain: MSLFKARDWWSTILGDKEEFDQGCLCLANVDNSGNGQDKIIVGSFMGYLRIFSPHPAKTGDGAQAEDLLLEVDLRDPVLQVEVGKFVSGTEMLHLAVLHSRKLCVYSVSGTLGNVEHGNQCQMKLMYEHNLQRTACNMTYGSFGGVKGRDLICIQSMDGMLMVFEQESYAFGRFLPGFLLPGPLAYSSRTDSFLTVSSCQQVESYKYQVLAFATDADKRQETEQQKLGSGKRLVVDWTLNIGEQALDICIVSFNQSASSVFVLGERNFFCLKDNGQIRFMKKLDWSPSCFLPYCSVSEGTINTLIGNHNNMLHIYQDVTLKWATQLPHIPVAVRVGCLHDLKGVIVTLSDDGHLQCSYLGTDPSLFQAPNVQSRELNYDELDVEMKELQKIIKDVNKSQGVWPMTEREDDLNVSVVVSPNFDSVSQATDVEVGTDLVPSVTVKVTLQNRVILQKAKLSVYVQPPLELTCDQFTFEFMTPDLTRTVSFSVYLKRSYTPSELEGNAVVSYSRPTDRNPDGIPRVIQCKFRLPLKLICLPGQPSKTASHKITIDTNKSPVSLLSLFPGFASQSDDDQVNVMGFHFLGGARITVLASKTSQRYRIQSEQFEDLWLITNELILRLQEYFEKQGVKDFACSFSGSIPLQEYFELIDHHFELRINGEKLEELLSERAVQFRAIQRRLLARFKDKTPAPLQHLDTLLDGTYKQVIALADAVEENQGNLFQSFTRLKSATHLVILLIALWQKLSADQVAILEAAFLPLQEDTQELGWEETVDAAISHLLKTCLSKSSKEQALNLNSQLNIPKDTSQLKKHITLLCDRLSKGGRLCLSTDAAAPQTMVMPGGCTTIPESDLEERSVEQDSTELFTNHRHLTAETPRPEVSPLQGVSE
B2: human BBS9 G141R, Flag-tagged (natural protein, UniProt Q3SYG4 1-887, looked up)
chain: B1 chain with G141R
B3: human BBS2 (Bardet-Biedl syndrome protein 2), wild type, HPC4- and c-Myc-tagged (natural protein, UniProt Q9BXC9 1-721, looked up)
chain: T1 sequence (looked up) with P632R
B4: human BBS7 (Bardet-Biedl syndrome protein 7), wild type, Flag-Strep-tagged (natural protein, UniProt Q8IWZ6 1-715, looked up)
chain: MDLILNRMDYLQVGVTSQKTMKLIPASRHRATQKVVIGDHDGVVMCFGMKKGEAAAVFKTLPGPKIARLELGGVINTPQEKIFIAAASEIRGFTKRGKQFLSFETNLTESIKAMHISGSDLFLSASYIYNHYCDCKDQHYYLSGDKINDVICLPVERLSRITPVLACQDRVLRVLQGSDVMYAVEVPGPPTVLALHNGNGGDSGEDLLFGTSDGKLALIQITTSKPVRKWEIQNEKKRGGILCIDSFDIVGDGVKDLLVGRDDGMVEVYSFDNANEPVLRFDQMLSESVTSIQGGCVGKDSYDEIVVSTYSGWVTGLTTEPIHKESGPGEELKINQEMQNKISSLRNELEHLQYKVLQERENYQQSSQSSKAKSAVPSFGINDKFTLNKDDASYSLILEVQTAIDNVLIQSDVPIDLLDVDKNSAVVSFSSCDSESNDNFLLATYRCQADTTRLELKIRSIEGQYGTLQAYVTPRIQPKTCQVRQYHIKPLSLHQRTHFIDHDRPMNTLTLTGQFSFAEVHSWVVFCLPEVPEKPPAGECVTFYFQNTFLDTQLESTYRKGEGVFKSDNISTISILKDVLSKEATKRKINLNISYEINEVSVKHTLKLIHPKLEYQLLLAKKVQLIDALKELQIHEGNTNFLIPEYHCILEEADHLQEEYKKQPAHLERLYGMITDLFIDKFKFKGTNVKTKVPLLLEILDSYDQNALISFFDAA

Key:
[1] = biological target: T1, human BBS2 R632P, c-Myc-tagged; test: co-IP
[2] = biological target: B3; test: co-IP
[3] = biological target: B1; test: negative-stain EM reconstruction + cross-linking
[4] = biological target: T2, human BBS2 L349W, c-Myc-tagged; test: co-IP
[5] = biological target: B3; test: pull-down

Binder: B1
reduction in binding relative to WT [1]: 70%

Binder: B2
reduction in binding relative to WT [2]: 70%

Binder: B3
binding result [3]: binds

Binder: B4
decrease in binding relative to WT [4]: 30%
binding result [5]: binds
